From FireProtDB (doi:10.1016/0022-2836(92)90906-z) come the findings set out here.

The labels stand for the following.
B1: Ribonuclease, P00648 (parent)
chain: MMKMEGIALKKRLSWISVCLLVLVSAAGMLFSTAAKTETSSHKAHTEAQVINTFDGVADYLQTYHKLPDNYITKSEAQALGWVASKGNLADVAPGKSIGGDIFSNREGKLPGKSGRTWREADINYTSGFRNSDRILYSSDWLIYKTTDHYQTFTKIR

The series covers variants of B1. The following applies: Bacillus amyloliquefaciens; pH 6.3; 25 °C; Urea; Fluorescence; MES 1.00 M; NaCl 613 mM; reversible: yes; structure 1BNI; whole UniProt chain shown.

On to MMKMEGIALKKRLSWISVCLLVLVSAAGMLFSTAAKTETSSHKAHTEAQVINTFDGVADYLQTYSKLPDNYITKSEAQALGWVASKGNLADVAPGKSIGGDIFSNREGKLPGKSGRTWREADINYTSGFRNSDRILYSSDWLIYKTTDHYQTFTKIR [H65S], for which the “ddG of mutation (higher = less stable)” value stood at 2.1 kcal/mol, the denaturant m value is 1.96 kcal/mol/M, the “denaturant midpoint (higher = more stable)” value (“denaturant midpoint” below) is 3.4 M and the unfolding free energy is 6.7 kcal/mol.
With MMKMEGIALKKRLSWISVCLLVLVSAAGMLFSTAAKTETSSHKAHTEAQVINTFDGVADYLQTYHKLPDNYITGSEAQALGWVASKGNLADVAPGKSIGGDIFSNREGKLPGKSGRTWREADINYTSGFRNSDRILYSSDWLIYKTTDHYQTFTKIR [K74G], the “ddG of mutation (higher = less stable)” value was -0.2 kcal/mol, the denaturant m value turned out to be 2.11 kcal/mol/M, the “denaturant midpoint” value was 4.29 M and the unfolding free energy amounted to 9 kcal/mol.
Turning to MMKMEGIALKKRLSWISVCLLVLVSAAGMLFSTAAKTETSSHKAHTEAQVINTFDGVADYLQTYRKLPDNYITKSEAQALGWVASKGNLADVAPGKSIGGDIFSNREGKLPGKSGRTWREADINYTSGFRNSDRILYSSDLLIYKTTDHYQTFTKIR [H65R W141L], the “ddG of mutation (higher = less stable)” value was 1.6 kcal/mol, the denaturant m value stood at 2.06 kcal/mol/M, the “denaturant midpoint” value stood at 3.48 M and the unfolding free energy is 7.2 kcal/mol.
With MMKMEGIALKKRLSWISVCLLVLVSAAGMLFSTAAKTETSSHKAHTEAQVINTFDGVADYLQTYHKLPDNYIDKSEAQALGWVASKGNLADVAPGKSIGGDIFSNREGKLPGKSGRTWREADINYTSGFRNSDRILYSSDWLIYKTTDHYQTFTKIR [T73D], the “ddG of mutation (higher = less stable)” value came out at 0 kcal/mol, the denaturant m value was 1.95 kcal/mol/M, the “denaturant midpoint” value was determined as 4.53 M and the unfolding free energy was 8.8 kcal/mol.
In the same order, the values of MMKMEGIALKKRLSWISVCLLVLVSAAGMLFSTAAKTETSSHKAHTEAQVINTFDGVADYLQTYHKLPDNYITKSEAQALHWVASKGNLADVAPGKSIGGDIFSNREGKLPGKSGRTWREADINYTSGFRNSDRILYSSDWLIYKTTDHYQTFTKIR [G81H] are 2.3 kcal/mol, 2.02 kcal/mol/M, 3.21 M and 6.5 kcal/mol.
With MMKMEGIALKKRLSWISVCLLVLVSAAGMLFSTAAKTETSSHKAHTEAQVINTFDGVADYLQTYHKLPDNYITKSEAQALDWVASKGNLADVAPGKSIGGDIFSNREGKLPGKSGRTWREADINYTSGFRNSDRILYSSDWLIYKTTDHYQTFTKIR [G81D], the “ddG of mutation (higher = less stable)” value is 3.2 kcal/mol, the denaturant m value was 1.99 kcal/mol/M, the “denaturant midpoint” value came to 2.83 M and the unfolding free energy was 5.6 kcal/mol.
For MMKMEGIALKKRLSWISVCLLVLVSAAGMLFSTAAKTETSSHKAHTEAQVINTFDGVADYLQTYHKLPDNYITKSEAQALAWVASKGNLADVAPGKSIGGDIFSNREGKLPGKSGRTWREADINYTSGFRNSDRILYSSDWLIYKTTDHYQTFTKIR [G81A] the same measures were 2.7 kcal/mol, 2.06 kcal/mol/M, 2.97 M and 6.1 kcal/mol.
MMKMEGIALKKRLSWISVCLLVLVSAAGMLFSTAAKTETSSHKAHTEAQVINTFDGVADYLQTYSKLPDNYITKSEAQALGWVASKGNLADVAPGKSIGGDIFSNREGKLPGKSGRTWREADINYTSGFRNSDRILYSSDLLIYKTTDHYQTFTKIR [H65S W141L]: the “ddG of mutation (higher = less stable)” value came out at 2.8 kcal/mol, the denaturant m value turned out to be 1.86 kcal/mol/M, the “denaturant midpoint” value was 3.24 M and the unfolding free energy was found to be 6 kcal/mol.
In the same order, the values of MMKMEGIALKKRLSWISVCLLVLVSAAGMLFSTAAKTETSSHKAHTEAQVINTFDGVADYLQTYHKLPDNYITKSAAQALGWVASKGNLADVAPGKSIGGDIFSNREGKLPGKSGRTWREADINYTSGFRNSDRILYSSDWLIYKTTDHYQTFTKIR [E76A] are 1.2 kcal/mol, 1.94 kcal/mol/M, 3.93 M and 7.6 kcal/mol.
With MMKMEGIALKKRLSWISVCLLVLVSAAGMLFSTAAKTETSSHKAHTEAQVINTFDGVADYLQTYHKLPDNYITKSGAQALGWVASKGNLADVAPGKSIGGDIFSNREGKLPGKSGRTWREADINYTSGFRNSDRILYSSDWLIYKTTDHYQTFTKIR [E76G], the “ddG of mutation (higher = less stable)” value was 2.2 kcal/mol, the denaturant m value was found to be 1.81 kcal/mol/M, the “denaturant midpoint” value worked out at 3.64 M and the unfolding free energy came to 6.6 kcal/mol.
In the same order, the values of MMKMEGIALKKRLSWISVCLLVLVSAAGMLFSTAAKTETSSHKAHTEAQVINTFDGVADYLQTYHKLPDNYITKSSAQALGWVASKGNLADVAPGKSIGGDIFSNREGKLPGKSGRTWREADINYTSGFRNSDRILYSSDWLIYKTTDHYQTFTKIR [E76S] are 1.2 kcal/mol, 1.93 kcal/mol/M, 3.94 M and 7.6 kcal/mol.
Consider MMKMEGIALKKRLSWISVCLLVLVSAAGMLFSTAAKTETSSHKAHTEAQVINTFDGVADYLQTYHKLPDNYITKGEAQALGWVASKGNLADVAPGKSIGGDIFSNREGKLPGKSGRTWREADINYTSGFRNSDRILYSSDWLIYKTTDHYQTFTKIR [S75G], for which the “ddG of mutation (higher = less stable)” value was determined as 0.5 kcal/mol, the denaturant m value turned out to be 1.88 kcal/mol/M, the “denaturant midpoint” value came to 4.34 M and the unfolding free energy worked out at 8.3 kcal/mol.
Consider MMKMEGIALKKRLSWISVCLLVLVSAAGMLFSTAAKTETSSHKAHTEAQVINTFDGVADYLQTYHKLPDNYITKAEAQALGWVASKGNLADVAPGKSIGGDIFSNREGKLPGKSGRTWREADINYTSGFRNSDRILYSSDWLIYKTTDHYQTFTKIR [S75A], for which the “ddG of mutation (higher = less stable)” value was -0.6 kcal/mol, the denaturant m value was found to be 1.98 kcal/mol/M, the “denaturant midpoint” value stood at 4.78 M and the unfolding free energy amounted to 9.4 kcal/mol.
In the same order, the values of MMKMEGIALKKRLSWISVCLLVLVSAAGMLFSTAAKTETSSHKAHTEAQVINTFDGVADYLQTYHKLPDNYITKSEASALGWVASKGNLADVAPGKSIGGDIFSNREGKLPGKSGRTWREADINYTSGFRNSDRILYSSDWLIYKTTDHYQTFTKIR [Q78S] are -0.3 kcal/mol, 2.05 kcal/mol/M, 4.44 M and 9.1 kcal/mol.
In the same order, the values of MMKMEGIALKKRLSWISVCLLVLVSAAGMLFSTAAKTETSSHKAHTEAQVINTFDGVADYLQTYHKLPDNYITKSEAGALGWVASKGNLADVAPGKSIGGDIFSNREGKLPGKSGRTWREADINYTSGFRNSDRILYSSDWLIYKTTDHYQTFTKIR [Q78G] are 1.1 kcal/mol, 1.89 kcal/mol/M, 4.07 M and 7.7 kcal/mol.
With MMKMEGIALKKRLSWISVCLLVLVSAAGMLFSTAAKTETSSHKAHTEAQVINTFDGVADYLQTYHKLPDNYITKSEAAALGWVASKGNLADVAPGKSIGGDIFSNREGKLPGKSGRTWREADINYTSGFRNSDRILYSSDWLIYKTTDHYQTFTKIR [Q78A], the “ddG of mutation (higher = less stable)” value is 0.3 kcal/mol, the denaturant m value is 1.83 kcal/mol/M, the “denaturant midpoint” value stood at 4.62 M and the unfolding free energy stood at 8.5 kcal/mol.
